Here are results for two molecules from PMC6755802 (The Journal of Biological Chemistry, 2019).

For experiment [1], the target named is T1, IL-2/IL-2Rβ binary complex (Homo sapiens, UniProt P60568;P14784).
T1 construct: human IL-2, amino acids 1-133; human IL-2Rβ ectodomain, amino acids 1-214; also called IL-2 BC; IL-2 binary complex; source: baculovirus expression system, purified (nickel chromatography, SEC)
Kind of experiment: flow cytometry on cells; scFv displayed on yeast; 1 μM of the indicated biotinylated complex components in PBE buffer, 2 h at room temperature; detection with 50 nM SA-647. The conditions noted are these: one partner purified.

Experiment [2] has as its target T2, IL-2, biotinylated (for staining of yeast) (Homo sapiens, UniProt P60568, biotin (site not stated)).
T2 construct: human IL-2, amino acids 1-133; also called interleukin-2; the cytokine; source: baculovirus expression system, purified (nickel chromatography, SEC)
Described as above. The conditions noted are these: one partner purified.

Experiment [3] deals with T3, IL-2Rβ ectodomain, biotinylated (for staining of yeast) (Homo sapiens, UniProt P14784, biotin (site not stated)).
T3 construct: human IL-2Rβ ectodomain, amino acids 1-214; also called the receptor; source: baculovirus expression system, purified (nickel chromatography, SEC)
The experiment is described as above. The conditions noted are these: one partner purified.

Experiment [4] deals with T4, Super-2/IL-2Rβ binary complex (human, UniProt P60568;P14784).
T4 construct: human IL-2Rβ ectodomain, amino acids 1-214; also called stabilized Super-2/IL-2Rβ binary complex; source: baculovirus expression system, purified (nickel chromatography, SEC)
T4 chain 1: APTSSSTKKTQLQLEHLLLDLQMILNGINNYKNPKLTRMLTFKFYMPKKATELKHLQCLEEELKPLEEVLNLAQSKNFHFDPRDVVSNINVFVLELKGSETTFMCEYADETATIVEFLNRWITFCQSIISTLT
T4 chain 2: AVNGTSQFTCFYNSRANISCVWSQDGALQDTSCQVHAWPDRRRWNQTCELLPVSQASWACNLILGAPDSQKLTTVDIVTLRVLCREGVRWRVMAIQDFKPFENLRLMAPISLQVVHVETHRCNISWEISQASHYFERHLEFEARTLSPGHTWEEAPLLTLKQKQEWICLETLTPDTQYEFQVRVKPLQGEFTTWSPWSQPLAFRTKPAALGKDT
Put plainly: SPR; biotinylated scFv immobilised on Biacore SA chip at low density; analytes flowed 60 s; complexes pre-incubated 30 min at room temperature; 25 °C; HBS-P+ with 0.2% BSA; KD from equilibrium titration, 1:1 model; in Fig. 1D all proteins at 60 μM. To be noted: both partners purified.

B1: affinity-matured IL-2 binary complex stapler scFv, yeast-displayed (scFv, V domains shown)
VH: QVQLQQSGPGLVKPSQTLSLTCAISGDSVSSNSATWNWIRQSPSRGLEWLGRTYYRSKWYDDYAVSVKSRITINPDTSKNQFSLQLNSVTPEDTAVYYCARATYGTYDYWGQGTLVTVSS
VL: NFMLTQPHSASESPGKTVTISCTGSRGSIASNYVQWYQQRPGSAPTTVIYEDNQRPSGVPDRFSGSIDSSSNSASLTISGLKTEDEADYYCQSYDQNYHAVFGGGTQLTVL
notes: as the scFv of m6 with changes in the VH and VL CDR3 regions; also called amIL-2B stapler; amIL-2BC stapler; source: site-directed mutagenic library of IL-2B stapler
Consider B1, for which the results for the binding result in experiment [1], in experiment [2] and in experiment [3] were “binds”, “no binding (tested: 1 μM)” and “no binding (tested: 1 μM)”, respectively.

B2: affinity-matured IL-2 binary complex stapler scFv, recombinantly expressed (scFv, V domains shown)
VH: QVQLQQSGPGLVKPSQTLSLTCAISGDSVSSNSATWNWIRQSPSRGLEWLGRTYYRSKWYDDYAVSVKSRITINPDTSKNQFSLQLNSVTPEDTAVYYCARATYGTYDYWGQGTLVTVSS
VL: NFMLTQPHSASESPGKTVTISCTGSRGSIASNYVQWYQQRPGSAPTTVIYEDNQRPSGVPDRFSGSIDSSSNSASLTISGLKTEDEADYYCQSYDQNYHAVFGGGTQLTVL
notes: VH of amIL-2B stapler; as the VH of m8 with changes in CDR3; 15-amino acid (Gly4Ser)3 linker; VL of amIL-2B stapler; as the VL of m8 with changes in CDR3; Biotinylated for immobilisation in SPR; also called amIL-2B stapler; amIL-2BC stapler; source: baculovirus system (pAcGP67A), purified (nickel chromatography, SEC)
On to B2, for which, in experiment [4], the Kd amounted to 15 nM.
